Data set [1] concerns the molecule itself. Put plainly: cryo-EM structure; human NHA2∆N-Fab complex in MSP1E2 nanodiscs with yeast PI lipids; apo and with 1 mM phloretin.
The target in data set [2] is T1, bison NHA2ΔN reconstituted into biotinylated proteoliposomes (bison, UniProt A0A6P3HVI0).
T1 construct: Sodium/proton exchanger NHA2 (SLC9B2) of bison, N-terminally truncated (ΔN); The biotin is on a lipid of the liposome, not on the protein; also called bison NHA2∆N; source: reconstituted with egg PC and a biotinylated lipid
T1 sequence (A0A6P3HVI0 whole entry, stated change not applied, the tested form may be a part): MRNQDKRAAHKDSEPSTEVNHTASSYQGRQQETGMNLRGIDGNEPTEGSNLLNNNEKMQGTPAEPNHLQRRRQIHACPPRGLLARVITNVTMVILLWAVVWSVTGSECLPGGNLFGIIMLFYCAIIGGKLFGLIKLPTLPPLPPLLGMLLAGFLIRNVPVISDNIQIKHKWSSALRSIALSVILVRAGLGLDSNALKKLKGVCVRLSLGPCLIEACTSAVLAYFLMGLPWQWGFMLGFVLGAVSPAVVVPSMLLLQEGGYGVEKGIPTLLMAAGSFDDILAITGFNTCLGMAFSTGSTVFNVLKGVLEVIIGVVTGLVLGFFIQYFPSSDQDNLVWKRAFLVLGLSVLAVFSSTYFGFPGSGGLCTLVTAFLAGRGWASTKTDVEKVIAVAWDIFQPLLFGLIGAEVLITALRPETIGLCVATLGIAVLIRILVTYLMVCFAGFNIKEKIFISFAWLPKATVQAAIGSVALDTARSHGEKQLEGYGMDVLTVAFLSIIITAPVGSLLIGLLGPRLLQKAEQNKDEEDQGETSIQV
Put plainly: ELISA; liposome ELISA: biotinylated proteoliposomes with bison NHA2ΔN immobilised on streptavidin-coated microplates; hybridoma clones.

In general, stoichiometry N refers to a count of units in the complex or per binding partner.

B1: Homo sapiens NHA2∆N (residues 59–537), tags removed with TEV protease, in MSP1E2 nanodiscs (domain or fragment, human, UniProt Q86UD5 59-537, looked up)
chain: LQETPTEANHVQRLRQMLACPPHGLLDRVITNVTIIVLLWAVVWSITGSECLPGGNLFGIIILFYCAIIGGKLLGLIKLPTLPPLPSLLGMLLAGFLIRNIPVINDNVQIKHKWSSSLRSIALSIILVRAGLGLDSKALKKLKGVCVRLSMGPCIVEACTSALLAHYLLGLPWQWGFILGFVLGAVSPAVVVPSMLLLQGGGYGVEKGVPTLLMAAGSFDDILAITGFNTCLGIAFSTGSTVFNVLRGVLEVVIGVATGSVLGFFIQYFPSRDQDKLVCKRTFLVLGLSVLAVFSSVHFGFPGSGGLCTLVMAFLAGMGWTSEKAEVEKIIAVAWDIFQPLLFGLIGAEVSIASLRPETVGLCVATVGIAVLIRILTTFLMVCFAGFNLKEKIFISFAWLPKATVQAAIGSVALDTARSHGEKQLEDYGMDVLTVAFLSILITAPIGSLLIGLLGPRLLQKVEHQNKDEEVQGETSVQV
notes: Sodium/proton exchanger NHA2 (SLC9B2), Homo sapiens, residues 59-537; construct lacks the first 58 amino acids; The methods call the tags N-terminal, but the protein is named NHA2∆N-GFP; TEV protease was added after the nanodisc reconstitution and before the final SEC; also called human NHA2∆N; hsNHA2∆N; not shown: GFP, N-terminal, cleaved; TwinStrep, N-terminal, cleaved; His8, N-terminal, cleaved
As to B1, in data set [1], the “stoichiometry N” value stood at 2.

B2: mouse monoclonal antibody against bison NHA2∆N (parent of the Fab) (antibody, V domains shown)
VH: EVQLQESGPELVKPGASVKMSCKASGYTFTNYFIHWVKQKPGQGLEWIGYINPYNDITKFNEKFKGKATLTSDKSSRTAYMELSSLTSEDSAVYYCARCDGYYRYYAMDYWGQGTSVTVSS
VL: DIVMTQTTSSLSASLGDRVTISCRASQDISNYLNWFQQKPDGTVKLLICYTSRLHSGVPSRFSGSGSGTDYSLTISNLEQEDIATYFCQQDSKHPWTFGGGTKLEIK
notes: Fab part as the heavy chain of m2 (in PDB 9QUB and 9QUW); as the light chain of m2 (in PDB 9QUB and 9QUW); Whole antibody of the selected hybridoma clone; also called antibody clone; source: mouse hybridoma (MRL/lpr mice immunised with bison NHA2 proteoliposomes)
Take B2: in data set [2], the binding result is “binds”.

The values are drawn from article PMC12072577, “Structure and Inhibition of the Human Na^+/H^+ Exchanger SLC9B2” (International Journal of Molecular Sciences, 2025).
